Literature values as cited in patent US7625865B2, “Insulin highly respirable microparticles” (Universita Degli Studi Di Parma, priority 2004, dated 2009).

What was measured:
[1] = rats
[2] = nebulization versus direct instillation of an acidic insulin solution
[3] = intratracheal instillation

Substance: insulin
- absorption of insulin [1]: rapid absorption
- absorbed fraction, aerosolized insulin versus instilled insulin [2]: 10 fold
- bioavailability of formulation at pH 3 versus pH 7 [3]: greater bioavalability
